Experimental data as given in patent US12065505B2, “Antibodies and antigen binding peptides for factor XIa inhibitors and uses thereof” (Bristol-Myers Squibb Company, priority 2021, dated 2024).
Like-named read-outs stand apart in the source and are kept apart here.

Experiment: SPR (Biacore) Protein A mAb capture, Compound A injected
Settings: 37° C., binding to Compound A, for rank ordering only
Experimental: The binding of hybridoma expressed 26D5 parent mAb (VH SEQ ID NO: 83 and VL SEQ ID NO: 98 in IgG1 f format)(P1-072224) and affinity matured mAbs to Compound A was examined by SPR (Biacore™) using a protein A capture method. The running buffer was 1×PBS (phosphate buffered saline, pH 7.4) with 0.05% Tween 20 and 2% DMSO. Binding experiments were carried out at 37° C. Protein A was coated on a CM5 S-series sensor chip (Cytiva, Cat. No. 29149603) at high density (2000+ RUs of protein A). The immobilization of protein A was carried out using the standard amine coupling immobilization procedure recommended by the manufacturer. The affinity matured antibody was then captured at a concentration of 2 ug/mL on the protein A surface at a flow rate of 3 uL/min for 2 minutes. Compound A was then injected over the captured antibody at concentrations spanning 100-3 nM (100, 50, 25, 12.5, 6.25, 3.125 nM) (FIG. 10) and for screening concentrations spanning 100-3 nM (100, 33, 11 nM) for 2 minutes at a flow rate of 100 uL/min and allowed to dissociate for at least 450 seconds. The chip surface was regenerated after each cycle with a 40 second pulse of 10 mM Glycine, pH 1.5. Background binding to the protein A surface alone was used to subtract non-specific binding. All experiments were run on a Biacore T200 surface plasmon resonance instrument using Biacore T200 Control software v. 2. Data analysis was performed using Biacore T200 evaluation software v 3.1. Apparent affinities were determined for rank ordering only since dissociation rates were too slow to be measured by Biacore. The names of the mAbs in Table 10 refer to mAbs having the H and L chain sequences of the corresponding Fabs in Table 3 in an IgG1f format.

[1] = apparent affinity, read-out: KD

Row | Molecule | Kd [1] | Ka (apparent) | Kd (apparent)
1 | 26D5-296-C08-mAb: human IgG1f/kappa mAb; VH SEQ ID NO: 66, VL SEQ ID NO: 95 (antibody, V domains shown) VH: EVQLVESGGGLIQPGGSLRLSCAASGFQVSSNAMSWVRQAPGKGLEWVSFIYSGGRTYYADSVKGRFTISRDNSKNTLYLQMNSLRAEDTAVYYCARGGFGGGDYWGQGTLVTVSS VL: DIQMTQSPSSVSASVGDRVTITCRASQYIESNLAWYQQKPGKAPKLLIYAASSLQSGVPSRFSGSGSGTDFTLTISSLQPEDFATYYCQQANSFPLTFGGGTKVEIK | 0.59 nM | 530000 M⁻¹ s⁻¹ | 0.00031 s⁻¹
2 | 26D5-295-C07-mAb: human IgG1f/kappa mAb; VH SEQ ID NO: 67, VL SEQ ID NO: 88 (antibody, V domains shown) VH: EVQLVESGGGLIQPGGSLRLSCAASGFTVSSNAMSWVRQAPGKGLEWVSFIYSGGRTYYADSVKGRFTISRDNSKNTLYLQMNSLRAEDTAVYYCARGGFGGGDYWGQGTLVTVSS VL: DIQMTQSPSSVSASVGDRVTITCRASQGISSNLAWYQQKPGKAPKLLIYAASSLQSGVPSRFSGSGSGTDFTLTISSLQPEDFATYYCQQANSFPLTFGGGTKVEIK | 1.6 nM | 200000 M⁻¹ s⁻¹ | 0.00033 s⁻¹
3 | 26D5-296-B07-mAb: human IgG1f/kappa mAb; VH SEQ ID NO: 68, VL SEQ ID NO: 93 (antibody, V domains shown) VH: EVQLVESGGGLIQPGGSLRLSCAASGFQVSSNAMSWVRQAPGKGLEWVSFIYSGGRTYYADSVKGRFTISRDNSKNTLYLQMNSLRAEDTAVYYCARAGFGGGDYWGQGTLVTVSS VL: DIQMTQSPSSVSASVGDRVTITCRASQGISSWLAWYQQKPGKAPKLLIYAASSLQSGVPSRFSGSGSGTDFTLTISSLQPEDFATYYCQQHNSFPLTFGGGTKVEIK | 1.8 nM | 290000 M⁻¹ s⁻¹ | 0.00042 s⁻¹
4 | 26D5-295-G07-mAb: human IgG1f/kappa mAb; VH SEQ ID NO: 69, VL SEQ ID NO: 88 (antibody, V domains shown) VH: EVQLVESGGGLIQPGGSLRLSCAASGFTVSSNYMSWVRQAPGKGLEWVSFIYPGGRTYYADSVKGRFTISRDNSKNTLYLQMNSLRAEDTAVYYCARGGFGGGDYWGQGTLVTVSS VL: DIQMTQSPSSVSASVGDRVTITCRASQGISSNLAWYQQKPGKAPKLLIYAASSLQSGVPSRFSGSGSGTDFTLTISSLQPEDFATYYCQQANSFPLTFGGGTKVEIK | 0.67 nM | 630000 M⁻¹ s⁻¹ | 0.00043 s⁻¹
5 | 26D5-296-D08-mAb: human IgG1f/kappa mAb; VH SEQ ID NO: 69, VL SEQ ID NO: 95 (antibody, V domains shown) VH: EVQLVESGGGLIQPGGSLRLSCAASGFTVSSNYMSWVRQAPGKGLEWVSFIYPGGRTYYADSVKGRFTISRDNSKNTLYLQMNSLRAEDTAVYYCARGGFGGGDYWGQGTLVTVSS VL: DIQMTQSPSSVSASVGDRVTITCRASQYIESNLAWYQQKPGKAPKLLIYAASSLQSGVPSRFSGSGSGTDFTLTISSLQPEDFATYYCQQANSFPLTFGGGTKVEIK | 0.59 nM | 770000 M⁻¹ s⁻¹ | 0.00045 s⁻¹
6 | 26D5-296-F03-mAb: human IgG1f/kappa mAb; VH SEQ ID NO: 70, VL SEQ ID NO: 88 (antibody, V domains shown) VH: EVQLVESGGGLIQPGGSLRLSCAASGFQVSSNYMSWVRQAPGKGLEWVSFIYSGGRTYYADSVKGRFTISRDNSKNTLYLQMNSLRAEDTAVYYCARAGFGGGDYWGQGTLVTVSS VL: DIQMTQSPSSVSASVGDRVTITCRASQGISSNLAWYQQKPGKAPKLLIYAASSLQSGVPSRFSGSGSGTDFTLTISSLQPEDFATYYCQQANSFPLTFGGGTKVEIK | 0.54 nM | 720000 M⁻¹ s⁻¹ | 0.00039 s⁻¹
7 | 26D5-296-G08-mAb: human IgG1f/kappa mAb; VH SEQ ID NO: 70, VL SEQ ID NO: 95 (antibody, V domains shown) VH: EVQLVESGGGLIQPGGSLRLSCAASGFQVSSNYMSWVRQAPGKGLEWVSFIYSGGRTYYADSVKGRFTISRDNSKNTLYLQMNSLRAEDTAVYYCARAGFGGGDYWGQGTLVTVSS VL: DIQMTQSPSSVSASVGDRVTITCRASQYIESNLAWYQQKPGKAPKLLIYAASSLQSGVPSRFSGSGSGTDFTLTISSLQPEDFATYYCQQANSFPLTFGGGTKVEIK | 0.49 nM | 800000 M⁻¹ s⁻¹ | 0.00039 s⁻¹
8 | 26D5-296-F07-mAb: human IgG1f/kappa mAb; VH SEQ ID NO: 71, VL SEQ ID NO: 94 (antibody, V domains shown) VH: EVQLVESGGGLIQPGGSLRLSCAASGFTVSSNYMSWVRQAPGKGLEWVSFIYSGGRTYYADSVKGRFTISRDNSKNTLYLQMNSLRAEDTAVYYCARAGFGGGDYWGQGTLVTVSS VL: DIQMTQSPSSVSASVGDRVTITCRASQYISSNLAWYQQKPGKAPKLLIYAASSLQSGVPSRFSGSGSGTDFTLTISSLQPEDFATYYCQQANSFPLTFGGGTKVEIK | 0.58 nM | 760000 M⁻¹ s⁻¹ | 0.00044 s⁻¹
9 | 26D5-296-G03-mAb: human IgG1f/kappa mAb; VH SEQ ID NO: 72, VL SEQ ID NO: 88 (antibody, V domains shown) VH: EVQLVESGGGLIQPGGSLRLSCAASGFQVSSNYMSWVRQAPGKGLEWVSFIYPGGRTYYADSVKGRFTISRDNSKNTLYLQMNSLRAEDTAVYYCARAGFGGGDYWGQGTLVTVSS VL: DIQMTQSPSSVSASVGDRVTITCRASQGISSNLAWYQQKPGKAPKLLIYAASSLQSGVPSRFSGSGSGTDFTLTISSLQPEDFATYYCQQANSFPLTFGGGTKVEIK | 0.61 nM | 940000 M⁻¹ s⁻¹ | 0.00058 s⁻¹
10 | 26D5-296-F08-mAb: human IgG1f/kappa mAb; VH SEQ ID NO: 73, VL SEQ ID NO: 95 (antibody, V domains shown) VH: EVQLVESGGGLIQPGGSLRLSCAASGFTVSSNYMSWVRQAPGKGLEWVSFIYPGGETYYADSVKGRFTISRDNSKNTLYLQMNSLRAEDTAVYYCARGGFGGGDYWGQGTLVTVSS VL: DIQMTQSPSSVSASVGDRVTITCRASQYIESNLAWYQQKPGKAPKLLIYAASSLQSGVPSRFSGSGSGTDFTLTISSLQPEDFATYYCQQANSFPLTFGGGTKVEIK | 0.68 nM | 870000 M⁻¹ s⁻¹ | 0.0006 s⁻¹
11 | 26D5-295-A08-mAb: human IgG1f/kappa mAb; VH SEQ ID NO: 74, VL SEQ ID NO: 88 (antibody, V domains shown) VH: EVQLVESGGGLIQPGGSLRLSCAASGFTVSENYMSWVRQAPGKGLEWVSFIYPGGRTYYADSVKGRFTISRDNSKNTLYLQMNSLRAEDTAVYYCARAGFGGGDYWGQGTLVTVSS VL: DIQMTQSPSSVSASVGDRVTITCRASQGISSNLAWYQQKPGKAPKLLIYAASSLQSGVPSRFSGSGSGTDFTLTISSLQPEDFATYYCQQANSFPLTFGGGTKVEIK | 0.58 nM | 1e+06 M⁻¹ s⁻¹ | 0.00059 s⁻¹
12 | 26D5-295-D07-mAb: human IgG1f/kappa mAb; VH SEQ ID NO: 75, VL SEQ ID NO: 88 (antibody, V domains shown) VH: EVQLVESGGGLIQPGGSLRLSCAASGFQVSENYMSWVRQAPGKGLEWVSFIYSGGRTYYADSVKGRFTISRDNSKNTLYLQMNSLRAEDTAVYYCARGGFGGGDYWGQGTLVTVSS VL: DIQMTQSPSSVSASVGDRVTITCRASQGISSNLAWYQQKPGKAPKLLIYAASSLQSGVPSRFSGSGSGTDFTLTISSLQPEDFATYYCQQANSFPLTFGGGTKVEIK | 1 nM | 800000 M⁻¹ s⁻¹ | 0.00081 s⁻¹
13 | 26D5-296-D03-mAb: human IgG1f/kappa mAb; VH SEQ ID NO: 76, VL SEQ ID NO: 88 (antibody, V domains shown) VH: EVQLVESGGGLIQPGGSLRLSCAASGFTVSSNYMSWVRQAPGKGLEWVSFIYSGGETFYADSVKGRFTISRDNSKNTLYLQMNSLRAEDTAVYYCARGGFGGGDYWGQGTLVTVSS VL: DIQMTQSPSSVSASVGDRVTITCRASQGISSNLAWYQQKPGKAPKLLIYAASSLQSGVPSRFSGSGSGTDFTLTISSLQPEDFATYYCQQANSFPLTFGGGTKVEIK | 0.71 nM | 1.7e+06 M⁻¹ s⁻¹ | 0.0012 s⁻¹
14 | 26D5-296-C07-mAb: human IgG1f/kappa mAb; VH SEQ ID NO: 77, VL SEQ ID NO: 94 (antibody, V domains shown) VH: EVQLVESGGGLIQPGGSLRLSCAASGITVSSNYMSWVRQAPGKGLEWVSFIYSGGRTYYADSVKGRFTISRDNSKNTLYLQMNSLRAEDTAVYYCARGGFGGGDYWGQGTLVTVSS VL: DIQMTQSPSSVSASVGDRVTITCRASQYISSNLAWYQQKPGKAPKLLIYAASSLQSGVPSRFSGSGSGTDFTLTISSLQPEDFATYYCQQANSFPLTFGGGTKVEIK | 1.4 nM | 950000 M⁻¹ s⁻¹ | 0.0014 s⁻¹
